PMC11199706

Experiments:
[1] = biological target: NOPLight (human (NOPR part)); experiment: fluorescence response of the sensor in acute brain slices (off kinetics); NOPLight expressed in mouse brain (AAV), slices at 31 °C in aCSF, 50 nL of N/OFQ at 10, 50 or 500 nM puffed onto the slice
[2] = biological target: NOPLight (human (NOPR part)); experiment: fluorescence response of the sensor on cells (line-scan confocal imaging, kinetics); NOPLight on HEK293T cells, 37 °C, N/OFQ applied in bolus with Red-Dextran dye, line scan at 800 Hz, mono-exponential association fit
[3] = biological target: NOPLight (human (NOPR part)); experiment: other fluorescence titration; apparent; NOPLight on transfected HEK293T cells in HBSS, N/OFQ applied manually during confocal imaging (20x), normalised ΔF/F0 fitted with a three-parameter Hill equation
[4] = biological target: NOPLight (human (NOPR part)); experiment: other fluorescence titration; apparent; NOPLight on AAV-transduced cultured rat cortical neurons in HBSS, N/OFQ applied manually during confocal imaging (20x), normalised ΔF/F0 fitted with a three-parameter Hill equation
[5] = biological target: NOPLight (human (NOPR part)); experiment: fluorescence response of the sensor on cells (confocal imaging); sensor on transfected HEK293T cells in HBSS, ligand pipetted in at one concentration (1 µM where stated), ΔF/F0 of membrane pixels
[6] = biological target: NOPLight (human (NOPR part)); experiment: fluorescence response of the sensor in acute brain slices; NOPLight expressed in the mouse arcuate nucleus (AAV), coronal slices perfused with aCSF pH 7.2, increasing N/OFQ (5 nM to 10 µM) bath-applied for 10 min each
[7] = biological target: NOPLight (human (NOPR part)); experiment: fluorescence response of the sensor on cells (wash-off kinetics); NOPLight on HEK293T cells on coverslips, 37 °C HBSS, 500 nM N/OFQ bath-applied, perfusion turned on after 30 s, mono-exponential decay fit
[8] = biological target: NOPLight (human (NOPR part)); experiment: fluorescence response of the sensor on cells (confocal imaging); sensor on AAV-transduced cultured rat cortical neurons in HBSS, 1 µM N/OFQ, ΔF/F0 of membrane pixels
[9] = biological target: NOPLight (human (NOPR part)); experiment: fluorescence response of the sensor on cells (wash-off kinetics); NOPLight on HEK293T cells under constant perfusion with 37 °C HBSS, about 50 nL of 100 µM N/OFQ puffed onto the cells, mono-exponential decay fit

τoff at 10 nM N/OFQ [1]: 30.9 s
τoff at 50 nM N/OFQ [1]: 41.1 s
τoff at 500 nM N/OFQ [1]: 53.1 s
τON (time constant of signal activation) [2]: 595 ms
EC50 [3]: 28.6 nM
EC50 [4]: 42.8 nM
ΔF/F0 upon N/OFQ (1 µM) [5]: 388%
ΔF/F0 at 10 nM N/OFQ [6]: 1.9%
ΔF/F0 at 10 µM N/OFQ [6]: 73%
τoff (bath application) [7]: 57.1 s
ΔF/F0 upon N/OFQ (1 µM) [8]: 378%
τoff (localized puff application) [9]: 29.9 s
Binder: FGGFTGARKSARKLANQ [nociceptin/orphanin-FQ peptide]
